Measured values: PMC3844621

Assays:
[1] = target: T1 scTCR with wild-type CDR loops (stabilized version), Y51A, soluble (human); assay: SPR
[2] = target: T1-S18.45 Q31A scTv, yeast-displayed (human); assay: flow cytometry on cells

Row | Kd [1] | other [2] | Substance
1 | > 1000 µM | – | MART-1/HLA-A2 of the steady-state SPR (peptide variant not stated) (from UniProt P61769 21-119) (peptide-MHC)
2 | – | > 15 fold | MART-1/HLA-A2-biotin monomer (UV peptide exchange) (from UniProt P61769 21-119) (peptide-MHC)
